According to patent publication US12312398B2, “Compositions and methods for targeting activin signaling to treat cancer” (The Johns Hopkins University, priority 2016, dated 2025):

B1: Activin: Activin (or Activin A), a dimeric member of the TGF-β Superfamily, added exogenously to T cells (protein, UniProt P08476 311-426, looked up)
Inhibin beta A chain: GLECDGKVNICCKKQFFVSFKDIGWNDWIIAPSGYHANYCEGECPSHIAGTSGSSLSFHSTVINHYRMRGHSPFANLKSCCVPTKLRPMSMLYYDDGQNIIKKDIQNMIVEECGCS
modifications: Inhibin beta A chain homodimer

Experiments:
SMAD = SMAD phosphorylation by western blot in CD4+ T cells; type: cell-based, mice; details: CD4+CD25− T cells, anti-CD3/anti-CD28 24 hrs, then 12 hours treatment; Activin 5 or 10 ng/ml; TGF-β 0.5 or 2 ng/ml; versus untreated
Experimental: Cells were harvested and subjected to SDS-PAGE and Western blot with the indicated antibodies.
Since Activin has been reported to promote SMAD signaling in non-T cells (Schmierer, B., et al., J Biol Chem, 2003. 278:21197-203), whether Activin signaling in T cells could have a similar effect was examined SMAD activity was assessed by western blot analysis of SMAD phosphorylation.

naïve CD4+ T cells = assay: In vitro Treg differentiation, intracellular Foxp3 by flow cytometry; type: cell-based, mice
Experimental: Naïve CD4+ T cells from Yap1f/f,Foxp3-yfpCre+ (KO) and Yap1 wt/wt,Foxp3ypfCre+ (WT) mice were stimulated with anti-CD3/CD28 antibodies (1 and 4 ug/ml, respectively) for 3 days in the presence of IL-2 (100 U/ml) and the indicated doses of TGFβ and exogenous Activin A. A low dose of TGF-beta and/or activin was also administered to the indicated samples (activin was dosed at 50 ng/ml on day 0 and day 2 of culture). Treg induction (via detection of intracellular Foxp3 up-regulation) was determined by flow cytometry.
To explore the involvement of Activin/ACVR1C signaling in the driving of Treg differentiation by YAP, the effects of supplemental Activin on in vitro Treg commitment was also investigated. Activation of wild type naïve CD4+ T cells without TGFI3 yielded little-to-no Foxp3 induction.
Naïve CD4+ T cells (CD4+ CD25− CD62LHi) were sorted on a FACS Aria high speed sorter. The sorted cells were activated with plate-bound aCD3 (10 ug/ml) and soluble aCD28 (2ug/ml) in a 24-well plate with the following polarizing conditions: Th1 (IL-12 (10 ng/ml), aIL-4 (10 ug/ml)), Th2 (IL-4 (10 ng/ml), aIFN-g(10 ug/ml), aIL-12 (10 ug/ml)), Th17 (IL-6 (10 ng/ml), TGF-b1 (1.25 ng/ml), IL-23 (10 ng/ml), IL-1b(10 ng/ml), aIFN-g (10 ug/ml), aIL-4 (10 ug/ml), Treg (TGFb1 (5 ng/ml), IL-2 (100IU/ml).
For extracellular staining, harvested cells were washed and incubated in PBS containing 1% FBS containing the below fluorochrome-conjugated antibodies in a U-bottom 96-well plate. For intracellular cytokine staining, harvested cells were re-stimulated in PMA and Ionomycin in the presence of Golg-Plug (BD Biosciences). After 5 hour incubation, the cells were fixed/permeablized (eBioscience) and incubated with antibodies. IFN-g PE, IFN-g APC, IL-13 PE, IL-17 APC (BD Bioscience), IL-2 APC (BD Pharmingen), Foxp3 PE (eBioscience). For cellular proliferation, Cell Trace CFSE cell proliferation kit (Invitrogen) was used per manufacture's manual.

Molecule | SMAD phosphorylation (phospho-SMAD) (SMAD) | Foxp3+ T cell induction (Treg induction) (naïve CD4+ T cells; wild type naïve CD4+ T cells, anti-CD3/CD28, IL-2 (100 U/ml), 3 days, activin 50 ng/ml on day 0 and day 2, low (suboptimal) dose TGF-β) | Foxp3+ T cell induction (Treg induction) (naïve CD4+ T cells; Foxp3-driven YAP knockout (Foxp3Cre+/Yap1f/f) naïve CD4+ T cells, anti-CD3/CD28, IL-2, 3 days) | Foxp3+ T cell induction (Treg induction) (naïve CD4+ T cells; wild type naïve CD4+ T cells, anti-CD3/CD28, IL-2 (100 U/ml), 3 days, activin 50 ng/ml on day 0 and day 2, low (suboptimal) dose TGF-β, listed as Activin A)
TGF-β: anti-inflammatory cytokine TGF-β, inducer of Foxp3 expression | induced SMAD phosphorylation | modest up-regulation of Foxp3 | – | –
B1 | elevation of phospho-SMAD | – | not seen | generated a population of Foxp3+ cells
